Measured values taken from US20190290758A1.

Molecular target: ELAVL4 1-117 with the canonical isoAsp-prone sites N7, N15 and D36 mutated (human)

on-blot PIMT-catalyzed methylation with 3H-S-adenosyl methionine: 25%
Substance: recombinant rat repair enzyme protein-L-isoaspartate O-methyltransferase (PIMT) (from UniProt P22062)
